According to paper PMC6028451:
Values belong to the substance of their own block, whether it stands above or below them.

What was measured:
FtsY (Escherichia coli) = FtsY (Escherichia coli) (UniProt P10121); conditions: cited from earlier work
[1] = molecular target: (Bpy)Lep50-RNC: stalled ribosome-nascent-chain complex with a nascent chain of leader peptidase (Lep) of 50 amino acids, Bodipy FL at the N-terminal methionine (Escherichia coli) (UniProt P00803); experiment: other fluorescence titration; as a5, in the presence of FtsY (1 µM) and SecY39EG in nanodiscs; apparent
[2] = molecular target: (Bpy)Lep75-RNC: stalled ribosome-nascent-chain complex with a nascent chain of leader peptidase (Lep) of 75 amino acids, Bodipy FL at the N-terminal methionine (Escherichia coli) (UniProt P00803); experiment: as above
[3] = molecular target: (Bpy)Lep50-RNC: stalled ribosome-nascent-chain complex with a nascent chain of leader peptidase (Lep) of 50 amino acids, Bodipy FL at the N-terminal methionine (Escherichia coli) (UniProt P00803); experiment: other fluorescence titration; as a5, RNC in complex with FtsY (1 µM) and SecYEG in nanodiscs (increasing to saturating); apparent
[4] = molecular target: (Bpy)Lep75-RNC: stalled ribosome-nascent-chain complex with a nascent chain of leader peptidase (Lep) of 75 amino acids, Bodipy FL at the N-terminal methionine (Escherichia coli) (UniProt P00803); experiment: as above
Lep50- or Lep75-RNC [5] = experiment: other fluorescence titration; equilibrium titration monitored by FRET; (Bpy)Lep-RNC 4 nM titrated with SRP(Alx), GDPNP 500 µM, buffer A, 25 °C; apparent; without SecYEG
Lep50- or Lep75-RNC [6] = experiment: other fluorescence titration; as a5, in the presence of saturating amounts of SecYEG in nanodiscs; apparent
[7] = molecular target: SRP(MDCC): signal recognition particle with MDCC at position 235 in the G domain of Ffh (Escherichia coli) (UniProt P0AGD7); experiment: other fluorescence titration; SRP(MDCC) 25 nM titrated with FtsY(Bpy); SRP bound to Lep50-RNC (10 nM); buffer A, 25 °C; apparent
[8] = molecular target: SRP(MDCC): signal recognition particle with MDCC at position 235 in the G domain of Ffh (Escherichia coli) (UniProt P0AGD7); experiment: stopped-flow FRET kinetics; 70S ribosomes (50 nM) in complex with SRP(MDCC) (500 nM) rapidly mixed with FtsY(Bpy) (1 µM); acceptor (Bpy) fluorescence; no SecYEG
[9] = molecular target: SRP(MDCC): signal recognition particle with MDCC at position 235 in the G domain of Ffh (Escherichia coli) (UniProt P0AGD7); experiment: stopped-flow FRET kinetics; Lep50-RNC (30 nM) in complex with SRP(MDCC) (500 nM) rapidly mixed with FtsY(Bpy) (1 µM); no SecYEG
[10] = molecular target: SRP(MDCC): signal recognition particle with MDCC at position 235 in the G domain of Ffh (Escherichia coli) (UniProt P0AGD7); experiment: other fluorescence titration; as a22 (Lep75-RNC), with SecYEG in nanodiscs (300 nM); apparent
[11] = molecular target: SRP(MDCC): signal recognition particle with MDCC at position 235 in the G domain of Ffh (Escherichia coli) (UniProt P0AGD7); experiment: other fluorescence titration; equilibrium titration monitored by FRET; SRP(MDCC) 25 nM titrated with FtsY(Bpy); SRP bound to 70S ribosomes (500 nM); buffer A, 25 °C; apparent
SRP (Escherichia coli) = SRP (Escherichia coli) (UniProt P0AGD7); conditions: cited from earlier work

FtsY, sequence (P10121 2-497): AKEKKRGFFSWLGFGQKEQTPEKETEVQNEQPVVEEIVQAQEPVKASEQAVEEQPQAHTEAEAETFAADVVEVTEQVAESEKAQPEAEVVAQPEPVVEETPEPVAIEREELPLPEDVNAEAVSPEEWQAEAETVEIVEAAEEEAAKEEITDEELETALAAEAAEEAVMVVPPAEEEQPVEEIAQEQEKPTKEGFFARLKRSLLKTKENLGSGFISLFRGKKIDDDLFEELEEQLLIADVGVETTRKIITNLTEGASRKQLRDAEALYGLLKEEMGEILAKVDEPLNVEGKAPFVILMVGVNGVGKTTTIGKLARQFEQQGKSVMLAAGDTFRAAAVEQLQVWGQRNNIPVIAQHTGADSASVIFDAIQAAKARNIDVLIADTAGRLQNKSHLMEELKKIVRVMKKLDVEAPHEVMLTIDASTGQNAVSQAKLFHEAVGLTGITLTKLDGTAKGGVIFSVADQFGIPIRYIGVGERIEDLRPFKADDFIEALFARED
SecYEG, sequence (P0AGA2 whole entry): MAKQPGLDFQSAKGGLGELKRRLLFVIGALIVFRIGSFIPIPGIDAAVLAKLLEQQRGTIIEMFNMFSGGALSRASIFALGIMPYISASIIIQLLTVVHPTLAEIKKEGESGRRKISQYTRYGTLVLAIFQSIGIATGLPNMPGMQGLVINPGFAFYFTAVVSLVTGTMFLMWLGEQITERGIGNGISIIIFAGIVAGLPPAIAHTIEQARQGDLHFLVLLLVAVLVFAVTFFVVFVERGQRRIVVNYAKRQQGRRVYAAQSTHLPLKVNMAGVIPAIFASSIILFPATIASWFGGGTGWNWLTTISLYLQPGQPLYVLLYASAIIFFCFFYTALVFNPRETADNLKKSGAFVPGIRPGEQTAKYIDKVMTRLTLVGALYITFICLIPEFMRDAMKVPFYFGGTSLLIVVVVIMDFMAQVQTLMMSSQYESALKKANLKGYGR
SecYEG, sequence (P0AG96 whole entry, further chain): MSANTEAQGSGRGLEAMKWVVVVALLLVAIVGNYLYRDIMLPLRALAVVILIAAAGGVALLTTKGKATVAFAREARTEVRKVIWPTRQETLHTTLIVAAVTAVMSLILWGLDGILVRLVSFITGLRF
SecYEG, sequence (P0AG99 whole entry, further chain): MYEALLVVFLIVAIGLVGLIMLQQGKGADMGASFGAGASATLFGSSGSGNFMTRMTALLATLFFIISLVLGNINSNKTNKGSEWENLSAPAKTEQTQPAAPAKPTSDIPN

Substance: SecYEG (from UniProt P0AGA2)
- Kd (FtsY (Escherichia coli)): 200 nM

- fold change of the apparent affinity with SecY39EG–FtsY [1]: < 5 fold
- fold change of the apparent affinity with SecY39EG–FtsY [2]: < 5 fold
- Kd [3]: 50 nM
- α (factor by which the appKd of SRP binding is increased by SecYEG–FtsY) [4]: 4
- Kd (Lep50- or Lep75-RNC [5]): 3 to 4 nM
- Kd (Lep50- or Lep75-RNC [6]): 15 to 20 nM
Substance: SRP(Alx): signal recognition particle with Alexa555 at position 430 in the M domain of SRP protein Ffh (from UniProt P0AGD7 1-453) (complex)

- Kd [7]: 5 to 10 nM
- half-life time of association [8]: 15 s
- average half-life time of association [9]: 1 s
- Kd [10]: 40 nM
- fold increase of the appKd with SecYEG against without SecYEG [10]: 10 fold
- Kd [11]: 50 nM
Substance: FtsY(Bpy): SRP receptor FtsY with Bodipy FL at position 487 in the N domain (from UniProt P10121 1-497)

Substance: FtsY (from UniProt P10121)
- Kd (SRP (Escherichia coli)): 500 nM
